In experiment [1] the target is C14:0-ACP.
Experiment [2] has as its target C16:0-ACP.
In experiment [3] the target is C12:0-ACP.
Experiment [4] deals with C14:0-ACP. The source holds these as a separate data set.
In experiment [5] the target is C18:1-ACP.
Experiment [6] has as its target 16:1-ACP.
Experiment [7] concerns the target C16:0-ACP. The source holds these as a separate data set.
The target of experiment [8] is 12:1-ACP.
Experiment [9] has as its target 14:1-ACP.
Experiment [10] addresses C10:0-ACP.

These results are taken from US5723761.

For “Cuphea hookeriana Class II thioesterase CUPH-1 (cDNA clone CMT9) (enzyme)”, in experiment [1], the Fatty Acyl Composition of Transgenic Canola Seeds (mol %), 14:0 was found to be 0.98 mol %. In [2], this substance yielded a Fatty Acyl Composition of Transgenic Canola Seeds (mol %), 16:0 of 27.6 mol %. Also, the Fatty Acids (nmol/ml), total fatty acid analysis of liquid cultures of CUPH-1 transformed K27 (fadD) came out at 2 nmol/mL in experiment [3]; 225 nmol/mL in experiment [4]; 92.7 nmol/mL in experiment [5]; 124 nmol/mL in [6]; 281 nmol/mL in experiment [7]; 0.3 nmol/mL in experiment [8]. The same substance registered a Fatty Acids (nmol/ml), total fatty acid analysis of liquid cultures of CUPH-1 transformed K27 (fadD) in experiment [9] of 1.1 nmol/mL.

In experiment [10], “elm Class II acyl-ACP thioesterase (ULM-1) (enzyme)” returned a Fatty Acyl Composition of Transgenic Canola Seeds (mol %), 10:0 of 3.94 mol %. The substance also came in with a Fatty Acyl Composition of Transgenic Canola Seeds (mol %), 16:0 in experiment [2] of 20 mol %.
